# Data reported in patent US7708999B2, “Remedies for arthritis” (Kyowa Hakko Kirin Co., Ltd., priority 2001, dated 2010).
# B1: KM1334: anti-FGF-8 neutralizing monoclonal antibody produced by hybridoma KM1334 (FERM BP-5451), mouse IgG1 subclass (antibody, V domains shown)
# VH: QVQLQQSGAEVARPGASVKLSCKASGYTFTDYYLNWVKQRSGQGLEWIGEIDPGSDSIYYNENLEGRATLTADKSSSTAYMQLNSLTSEDSAVYFCARYGYSRYDVRFVYWGQGTLVTVST
# VL: DVLMTQTPLSLPVSLGDQASISCRSSQSLVHSNGRTYLEWYLQKPGQSPKVLIYKVSNRISGVPDRFSGSGSGTDFTLKISRVEAEDLGVYFCFQGSHVPYTFGGGTKLEIK
# Tested on: rat adjuvant arthritis model
# Assay: Rat adjuvant arthritis model
# Type: in vivo
# Experimental: The rat adjuvant arthritis model was performed in the following manner according to the method of Pearson et al. (Pearson CM. et al., Arthritis Rheum., 5, 654-658, 1962) using Lewis rats (female, 8 weeks old, Japan Charles River).
# Mycobacterium butyricum (manufactured by Difco) was suspended in a liquid paraffin (manufactured by Wako Pure Chemical Industries, Ltd.) to a final concentration of 6 mg/mL, and sterilized with a autoclave. The resulting solution was intradermally injected into the rat right hind pad in an amount of 100 μL for sensitization. One group consisted of 8 to 10 rats. Anti-FGF-8 neutralizing antibody KM1334 was dissolved in saline to a final concentration of 2 mg/mL. The solution was intraperitoneally administered to a KM1334 administrated group once a day at a dose of 0.5 mL per 100 g of the body weight for each rat on the sensitization day of the rat adjuvant arthritis model and on days 3, 7, 10, 14 and 17 from the sensitization. To saline administrated group, only saline was intraperitoneally administered instead of the anti-FGF-8 neutralizing antibody KM1334 solution. Further, sodium diclofenac, an antiinflammatory agent, was dissolved in a 0.5 w/v % methyl cellulose solution to a final concentration of 0.3 mg/mL, and the solution was orally administered to a sodium diclofenac administrated group as a positive control once a day at a dose of 1 mL per 100 g of the body weight on days 4, 7 to 11 and 14 to 18 from the adjuvant sensitization day. 50 mg of methotrexate® for injection (manufactured by Wyeth Japan) as a metabolic antagonist was dissolved in a 0.5 w/v % methyl cellulose solution to a final concentration of 0.01 mg/mL, and the solution was administered to a methotrexate administrated group in the same manner as in the sodium diclofenac administrated group. Prednisolone (manufactured by Sigma-Aldrich), a steroidal agent, was suspended in a 0.5 w/v % methyl cellulose solution to a final concentration of 0.3 mg/mL, and the suspension was administered to a prednisolone administrated group in the same manner as in the sodium diclofenac administrated group. Further, a 0.5 w/v % methyl cellulose solution alone was orally administered to a solvent administrated group in the same manner. An untreated group was used, and it was not subjected to sensitization with Mycobacterium butyricum and administration of an agent. The volumes of the adjuvant-treated paw and the adjuvant-untreated paw were measured as time goes by using a device for measuring edemas of rat hind paw (TK-101, manufactured by Unicom).
# Using urine collected for 24 hours at day 20 and day 21 after the sensitization, the amounts of glycosaminoglycan, deoxypyridinoline, hydroxyproline and creatinine in urine were measured. The amount of glycosaminoglycan in urine was measured by the DMMB method described in Example 1. The amount of hydroxyproline in urine was measured by the method of Ikeda et al. (Ikeda Shingo et al., Tokyo Eiken Nenpo, 36 277-282, 1985). That is, 0.8 mL of hydrochloric acid for amino acid analysis (manufactured by Kanto Kagaku) was added to 0.8 mL of urine to hydrolyze at 110° C. for 15 hours. To 0.5 mL of the hydrolyzed sample was added 2 mL of a 1.2 mol/L sodium hydroxide solution for neutralization. 1 mL of isopropanol was added to 0.5 mL of the neutralized sample, and 1 ml of an oxidant solution was added. The mixture was stirred well, and allowed to stand at room temperature for 5 minutes. […]
# [1] = adjuvant-untreated paw, score 0 to 4, mean ± standard error
# [2] = urine day 20 to 21, KM1334 intraperitoneally, vs saline group
molecule,measurement,setting,value
B1,Bone destruction score,"Table 1, soft X-ray of calcaneus, adjuvant-untreated paw, day 21, maximum 5, mean ± standard error",3.2 ± 0.5
same,Bone destruction score (% inhibition),"Table 1, vs saline group, not significant",27%
same,Pathological score: Blood cell plasma leak to articular cavity,[1],1.6 ± 0.3
same,Pathological score: Blood leak around joint,[1],2.0 ± 0.4
same,"inhibition of the increase in paw volume, adjuvant-untreated paw","day 21, 2 mg/mL, 0.5 mL per 100 g intraperitoneally, vs saline group",69%
same,decrease of the increase in amount of hydroxyproline in urine,"urine day 20 to 21, KM1334 intraperitoneally, not significant",48%
same,inhibition of the increase in amount of deoxypyridinoline in urine (deoxypyridinoline/creatinine ratio),[2],41%
same,inhibition of the increase in amount of glycosaminoglycan in urine (glycosaminoglycan/creatinine ratio),[2],73%
same,Blood cell plasma leak to articular cavity (Percent inhibition),vs saline group,41%
same,Blood leak around joint (Percent inhibition),vs saline group,41%
